Results reported in the supplement of paper PMC10567573.

B1: TMEM106C (parent)
chain: YVTTNVSLIPPRSEQLVNFTGKAE
B2: CDC25B (parent)
chain: KSPIAPCSLDKRVILIFHCEFSSE

Variants of: B1
Assay: protein stability index of a GFP-peptide fusion (GPS, HEK-293T) (PSI 1-6); higher = more stable
Settings: c terminus: a fixed tail appended
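Also: lentivirally expressed fusions sorted by FACS into six bins by GFP to DsRed ratio, PSI derived from sequencing read proportions per bin multiplied by bin number.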

| Variant | protein stability index |
| --- | --- |
| N18E | 1.3 |
| N18P | 2.4 |
| N18G | 1.7 |
| N18A | 2.02 |
| N18Q | 2.07 |
| N18W | 3.06 |
| N18T | 1.62 |
| N18I | 3.13 |
| N18C | 1.95 |
| N18S | 2.36 |
| N18M | 2.37 |
| N18F | 2.28 |
| N18K | 2.71 |
| N18R | 2.33 |
| N18D | 3.25 |
| N18L | 2.14 |
| N18V | 1.81 |
| N18H | 2.38 |
| A23T | 1.8 |
| A23N | 1.82 |
| A23Q | 1.74 |
| A23H | 2.47 |
| A23P | 1.77 |
| A23W | 2.51 |
| A23I | 2.24 |
| A23S | 1.54 |

| Variant | protein stability index |
| --- | --- |
| A23E | 1.65 |
| A23R | 2.4 |
| A23V | 2.3 |
| A23G | 1.91 |
| A23F | 2.06 |
| A23C | 1.84 |
| A23L | 1.31 |
| A23K | 2.23 |
| A23D | 2 |
| A23M | 1.81 |
| A23Y | 2.44 |
| E24W | 2.93 |
| E24M | 2.05 |
| E24F | 2.81 |
| E24H | 1.49 |
| E24P | 3.06 |
| E24G | 1.64 |
| E24N | 2.92 |
| E24I | 2.32 |
| E24A | 2 |
| E24Q | 2.06 |
| E24D | 2.58 |
| E24V | 1.41 |
| E24S | 2.1 |
| E24K | 1.88 |
| E24T | 2.75 |

| Variant | protein stability index |
| --- | --- |
| E24Y | 2.7 |
| E24L | 2.08 |
| E24C | 2.32 |
| E24R | 1.48 |
| F19S | 2.71 |
| F19H | 2.56 |
| F19E | 2.7 |
| F19K | 2.25 |
| F19N | 2 |
| F19D | 2.01 |
| F19V | 2.28 |
| F19T | 2.65 |
| F19L | 1.96 |
| F19G | 1.39 |
| F19C | 2.06 |
| F19Y | 1.9 |
| F19M | 1.9 |
| F19W | 2.33 |
| F19Q | 2.54 |
| F19P | 2.03 |
| F19R | 1.68 |
| F19I | 2.02 |
| F19A | 2.03 |
| L16T | 1.79 |
| L16V | 1.34 |
| L16W | 2.26 |

| Variant | protein stability index |
| --- | --- |
| L16Y | 1.73 |
| V17G | 1.98 |
| V17R | 1.41 |
| V17P | 2.31 |
| V17A | 1.84 |
| V17Y | 2.44 |
| V17W | 3.01 |
| V17I | 2.24 |
| V17Q | 3.85 |
| V17M | 2.04 |
| V17D | 2.2 |
| V17E | 2.24 |
| V17N | 1.62 |
| V17C | 2.19 |
| V17K | 2.83 |
| V17H | 2.1 |
| V17F | 2.88 |
| V17S | 1.55 |
| V17T | 1.91 |
| V17L | 2.3 |
| G21Y | 3.28 |
| G21M | 3.92 |
| G21T | 1.86 |
| G21H | 2.1 |
| G21F | 2.77 |
| G21K | 1.59 |

| Variant | protein stability index |
| --- | --- |
| G21E | 2.49 |
| G21N | 2.75 |
| G21W | 2.5 |
| G21L | 1.58 |
| G21D | 2.71 |
| G21Q | 2.3 |
| G21R | 2.32 |
| G21P | 3.07 |
| G21I | 2.1 |
| G21C | 1.83 |
| G21A | 1.99 |
| G21S | 1.6 |
| G21V | 2.12 |
| K22E | 1.78 |
| K22A | 2.23 |
| K22T | 2.14 |
| K22V | 2.81 |
| K22M | 2.54 |
| K22D | 2.08 |
| K22Q | 1.53 |
| K22S | 1.72 |
| K22C | 2.1 |
| K22P | 1.76 |
| K22W | 3.19 |
| K22F | 2.26 |
| K22Y | 1.61 |

| Variant | protein stability index |
| --- | --- |
| K22G | 1.89 |
| K22R | 1.8 |
| K22N | 2.04 |
| K22L | 1.96 |
| K22H | 1.96 |
| K22I | 1.88 |
| T20E | 2.09 |
| T20S | 1.51 |
| T20Q | 1.66 |
| T20A | 2.27 |
| T20R | 2.19 |
| T20L | 1.99 |
| T20V | 1.84 |
| T20P | 2.29 |
| T20W | 2.85 |
| T20H | 1.86 |
| T20M | 3.02 |
| T20I | 2.08 |
| T20C | 2.34 |
| T20G | 2.13 |
| T20N | 1.53 |
| T20D | 1.95 |
| T20K | 2.11 |
| T20F | 2.31 |
| T20Y | 2.86 |

Variants of: B2
Assay: as above
Settings: c terminus: a fixed tail appended

| Variant | protein stability index |
| --- | --- |
| S8I | 2.17 |
| S8E | 1.45 |
| S8G | 3.16 |
| S8L | 1 |
| S8D | 2.31 |
| S8C | 3 |
| S8V | 2.5 |
| S8T | 4.2 |
| S8M | 2.28 |
| S8H | 3.03 |
| S8W | 1.81 |
| S8F | 2.12 |
| S8A | 3.52 |
| S8K | 2.88 |
| S2D | 3.82 |
| S2I | 1.68 |
| S2A | 2.37 |
| S2M | 1.13 |
| S2Y | 3.15 |
| S2E | 3.4 |
| S2F | 3.02 |
| S2T | 3.22 |
| S2W | 4.11 |
| V13H | 1.85 |
| V13W | 4.17 |
| V13P | 1.49 |

| Variant | protein stability index |
| --- | --- |
| V13R | 3.12 |
| V13N | 1.61 |
| V13D | 2.51 |
| V13E | 1.45 |
| V13F | 2.29 |
| V13A | 3.2 |
| V13K | 1.32 |
| V13C | 1.21 |
| V13I | 3.36 |
| V13S | 3.15 |
| V13Q | 1.42 |
| V13T | 2.89 |
| V13Y | 2.97 |
| V13G | 1.14 |
| V13L | 2.5 |
| A5I | 2.65 |
| A5D | 2.57 |
| A5W | 2.46 |
| A5E | 2.55 |
| A5S | 2.48 |
| A5M | 1.72 |
| A5T | 2.85 |
| A5L | 2.58 |
| A5Y | 3 |
| A5F | 2.93 |
| A5N | 2.85 |

| Variant | protein stability index |
| --- | --- |
| A5H | 2.3 |
| A5Q | 1.42 |
| K1P | 3.88 |
| K1N | 1.96 |
| K1G | 3.01 |
| K1S | 3.48 |
| K1I | 1.11 |
| K1L | 1.86 |
| K1F | 2.7 |
| L9A | 2.62 |
| L9M | 2.53 |
| L9S | 2.4 |
| L9R | 3.58 |
| L9Y | 3.94 |
| L9K | 2.39 |
| L9T | 2.22 |
| L9I | 4.08 |
| L9N | 2.78 |
| L9P | 3.63 |
| L9C | 2.46 |
| L9F | 2.64 |
| L9D | 2.66 |
| L9W | 2.9 |
| L9V | 2.37 |
| L9G | 2.92 |
| L9Q | 2.42 |

| Variant | protein stability index |
| --- | --- |
| R12H | 2.79 |
| R12S | 4.14 |
| R12P | 2.66 |
| R12I | 3.03 |
| R12L | 3.04 |
| R12Y | 3.38 |
| R12N | 2.76 |
| R12F | 5.41 |
| R12K | 3.98 |
| R12M | 2.89 |
| R12D | 3.43 |
| R12G | 2.23 |
| P6G | 2.54 |
| P6R | 1.89 |
| P6F | 3.05 |
| P6H | 2.23 |
| P6Y | 3.74 |
| P6W | 3.61 |
| P6Q | 4.6 |
| P6C | 2.97 |
| P6V | 1.39 |
| I14S | 1.94 |
| I14T | 2.1 |
| I14F | 2.94 |
| I14M | 2.35 |
| I14P | 2.25 |

| Variant | protein stability index |
| --- | --- |
| I14H | 3.76 |
| I14N | 1.96 |
| I14R | 1.79 |
| I14Q | 1.1 |
| I14D | 2.54 |
| I14E | 2.07 |
| I14V | 2.87 |
| I14A | 2.65 |
| I14G | 1.56 |
| I14L | 1.95 |
| I14C | 1.54 |
| L15G | 1.39 |
| L15F | 2.88 |
| L15D | 2.38 |
| L15A | 2.68 |
| L15E | 1.83 |
| D10H | 2.05 |
| D10Y | 1.66 |
| D10V | 2.67 |
| D10I | 2.12 |
| D10T | 3.32 |
| D10S | 2.26 |
| D10C | 2.23 |
| D10M | 2.48 |
| D10Q | 1.71 |
| D10W | 2.94 |

| Variant | protein stability index |
| --- | --- |
| D10P | 3.83 |
| D10F | 2.42 |
| D10A | 2.95 |
| D10G | 2.74 |
| I4D | 1.16 |
| I4Y | 3.53 |
| I4M | 4.09 |
| I4K | 3.59 |
| I4H | 1.94 |
| I4S | 2.89 |
| I4F | 2.53 |
| I4P | 2.2 |
| I4N | 2.64 |
| I4G | 4.68 |
| I4W | 2.72 |
| C7I | 3.17 |
| C7Q | 2.01 |
| C7L | 3.92 |
| C7S | 2.13 |
| C7P | 2.65 |
| C7T | 2.55 |
| C7K | 2.56 |
| C7A | 2.03 |
| C7N | 2.54 |
| C7V | 3.75 |
| C7M | 2.15 |

| Variant | protein stability index |
| --- | --- |
| C7H | 3.31 |
| C7G | 2.4 |
| C7R | 3.39 |
| P3Q | 3.1 |
| P3G | 1.9 |
| P3I | 2.38 |
| P3L | 3.29 |
| P3H | 2.63 |
| P3N | 2.73 |
| P3M | 3.46 |
| P3W | 2.17 |
| P3A | 2.25 |
| P3T | 2.17 |
| K11M | 2.9 |
| K11I | 3.79 |
| K11V | 4.34 |
| K11F | 2.69 |
| K11Q | 2.16 |
| K11L | 2.35 |
| K11H | 2.1 |
| K11P | 3.23 |
| K11Y | 2.32 |
| K11C | 2.52 |
